Data: US20160354480A1 (VECT HORUS, published 2016)
Bridge positions count the residues as written; N and C are the ends. Square brackets hold non-standard residues; d marks the D form. Ends that are not written are not given here. * marks the point of attachment. Pen = CC(C)(S)[C@H](N)C(=O)O; Tle = CC(C)(C)[C@H](N)C(=O)O; Pip = O=C(O)[C@@H]1CCCCN1; Propionyl = CCC(=O)*; Sar = CNCC(=O)O

B1: compound XX, SEQ ID NO: 11-[Lys8, Tle12]NT(8-13) (peptide)
peptide: Propionyl-[dC]M[Pip]RLR[Sar][Pen]KRPY[Tle]L-OH
modifications: disulfide 1-8
SMILES: CCC(=O)N[C@@H]1CSSC(C)(C)[C@@H](C(=O)N[C@@H](CCCCN)C(=O)N[C@@H](CCCNC(=N)N)C(=O)N2CCC[C@H]2C(=O)N[C@@H](Cc2ccc(O)cc2)C(=O)N[C@H](C(=O)N[C@@H](CC(C)C)C(=O)O)C(C)(C)C)NC(=O)CN(C)C(=O)[C@H](CCCNC(=N)N)NC(=O)[C@H](CC(C)C)NC(=O)[C@H](CCCNC(=N)N)NC(=O)[C@@H]2CCCCN2C(=O)[C@H](CCSC)NC1=O
B2: compound XVII, SEQ ID NO: 9-[Lys9, Tle12]NT(8-13) (peptide)
peptide: Propionyl-[dC]M[Pip]RLR[Sar]CRKPY[Tle]L-OH
modifications: disulfide 1-8
SMILES: CCC(=O)N[C@@H]1CSSC[C@@H](C(=O)N[C@@H](CCCNC(=N)N)C(=O)N[C@@H](CCCCN)C(=O)N2CCC[C@H]2C(=O)N[C@@H](Cc2ccc(O)cc2)C(=O)N[C@H](C(=O)N[C@@H](CC(C)C)C(=O)O)C(C)(C)C)NC(=O)CN(C)C(=O)[C@H](CCCNC(=N)N)NC(=O)[C@H](CC(C)C)NC(=O)[C@H](CCCNC(=N)N)NC(=O)[C@@H]2CCCCN2C(=O)[C@H](CCSC)NC1=O
B3: compound X, SEQ ID NO: 9-GGG-NT(6-13) (peptide)
peptide: Propionyl-[dC]M[Pip]RLR[Sar]CGGGKPRRPYIL-OH
modifications: disulfide 1-8
SMILES: CCC(=O)N[C@@H]1CSSC[C@@H](C(=O)NCC(=O)NCC(=O)NCC(=O)N[C@@H](CCCCN)C(=O)N2CCC[C@H]2C(=O)N[C@@H](CCCNC(=N)N)C(=O)N[C@@H](CCCNC(=N)N)C(=O)N2CCC[C@H]2C(=O)N[C@@H](Cc2ccc(O)cc2)C(=O)N[C@H](C(=O)N[C@@H](CC(C)C)C(=O)O)[C@@H](C)CC)NC(=O)CN(C)C(=O)[C@H](CCCNC(=N)N)NC(=O)[C@H](CC(C)C)NC(=O)[C@H](CCCNC(=N)N)NC(=O)[C@@H]2CCCCN2C(=O)[C@H](CCSC)NC1=O
B4: compound XIX, SEQ ID NO: 9-[Lys8, Trp11, Tle12]NT(8-13) (peptide)
peptide: Propionyl-[dC]M[Pip]RLR[Sar]CKRPW[Tle]L-OH
modifications: disulfide 1-8
SMILES: CCC(=O)N[C@@H]1CSSC[C@@H](C(=O)N[C@@H](CCCCN)C(=O)N[C@@H](CCCNC(=N)N)C(=O)N2CCC[C@H]2C(=O)N[C@@H](Cc2c[nH]c3ccccc23)C(=O)N[C@H](C(=O)N[C@@H](CC(C)C)C(=O)O)C(C)(C)C)NC(=O)CN(C)C(=O)[C@H](CCCNC(=N)N)NC(=O)[C@H](CC(C)C)NC(=O)[C@H](CCCNC(=N)N)NC(=O)[C@@H]2CCCCN2C(=O)[C@H](CCSC)NC1=O
B5: compound XV, SEQ ID NO: 9-[Tle12]NT(8-13) (peptide)
peptide: Propionyl-[dC]M[Pip]RLR[Sar]CRRPY[Tle]L-OH
modifications: disulfide 1-8
SMILES: CCC(=O)N[C@@H]1CSSC[C@@H](C(=O)N[C@@H](CCCNC(=N)N)C(=O)N[C@@H](CCCNC(=N)N)C(=O)N2CCC[C@H]2C(=O)N[C@@H](Cc2ccc(O)cc2)C(=O)N[C@H](C(=O)N[C@@H](CC(C)C)C(=O)O)C(C)(C)C)NC(=O)CN(C)C(=O)[C@H](CCCNC(=N)N)NC(=O)[C@H](CC(C)C)NC(=O)[C@H](CCCNC(=N)N)NC(=O)[C@@H]2CCCCN2C(=O)[C@H](CCSC)NC1=O
B6: compound XVI, SEQ ID NO: 9-[Lys8, Tle12]NT(8-13) (peptide)
peptide: Propionyl-[dC]M[Pip]RLR[Sar]CKRPY[Tle]L-OH
modifications: disulfide 1-8
SMILES: CCC(=O)N[C@@H]1CSSC[C@@H](C(=O)N[C@@H](CCCCN)C(=O)N[C@@H](CCCNC(=N)N)C(=O)N2CCC[C@H]2C(=O)N[C@@H](Cc2ccc(O)cc2)C(=O)N[C@H](C(=O)N[C@@H](CC(C)C)C(=O)O)C(C)(C)C)NC(=O)CN(C)C(=O)[C@H](CCCNC(=N)N)NC(=O)[C@H](CC(C)C)NC(=O)[C@H](CCCNC(=N)N)NC(=O)[C@@H]2CCCCN2C(=O)[C@H](CCSC)NC1=O
B7: compound XVIII, SEQ ID NO: 9-[Trp11, Tle12]NT(8-13) (peptide)
peptide: Propionyl-[dC]M[Pip]RLR[Sar]CRRPW[Tle]L-OH
modifications: disulfide 1-8
SMILES: CCC(=O)N[C@@H]1CSSC[C@@H](C(=O)N[C@@H](CCCNC(=N)N)C(=O)N[C@@H](CCCNC(=N)N)C(=O)N2CCC[C@H]2C(=O)N[C@@H](Cc2c[nH]c3ccccc23)C(=O)N[C@H](C(=O)N[C@@H](CC(C)C)C(=O)O)C(C)(C)C)NC(=O)CN(C)C(=O)[C@H](CCCNC(=N)N)NC(=O)[C@H](CC(C)C)NC(=O)[C@H](CCCNC(=N)N)NC(=O)[C@@H]2CCCCN2C(=O)[C@H](CCSC)NC1=O

Legend:
[1] = target: T1, rat neurotensin receptor type 1 (rat, UniProt P20789 1-424); assay: competition with [3H]-neurotensin on membranes of HEK 293 cells expressing rat NTR-1; Ki from mean IC50 by Cheng-Prusoff
T1 construct: whole, on cells; Used as membrane homogenates of transfected HEK 293 cells (0.75 ug/well), not intact cells; also called rNTR-1; rNTR1

[2] = target: T2, human neurotensin receptor type 1 (human, UniProt P30989 1-418); assay: competition with [3H]-neurotensin on membranes of CHO cells expressing human NTR-1; Ki from mean IC50 by Cheng-Prusoff
T2 construct: whole, on cells; Used as cell membrane homogenates (0.5 ug/well), not intact cells; also called hNTR-1; Human NTR-1
T2 sequence (P30989 whole entry): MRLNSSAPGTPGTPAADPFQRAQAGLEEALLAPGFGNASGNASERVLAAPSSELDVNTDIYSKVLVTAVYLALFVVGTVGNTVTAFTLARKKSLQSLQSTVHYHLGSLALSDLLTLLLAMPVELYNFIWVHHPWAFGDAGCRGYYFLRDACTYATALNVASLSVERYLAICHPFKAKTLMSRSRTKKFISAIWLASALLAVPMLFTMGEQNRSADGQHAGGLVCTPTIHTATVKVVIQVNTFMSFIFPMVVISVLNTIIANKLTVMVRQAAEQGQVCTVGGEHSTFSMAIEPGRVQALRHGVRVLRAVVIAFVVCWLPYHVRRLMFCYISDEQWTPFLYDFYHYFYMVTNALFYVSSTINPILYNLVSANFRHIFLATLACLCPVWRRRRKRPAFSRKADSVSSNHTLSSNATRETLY

T1 sequence (P20789 whole entry): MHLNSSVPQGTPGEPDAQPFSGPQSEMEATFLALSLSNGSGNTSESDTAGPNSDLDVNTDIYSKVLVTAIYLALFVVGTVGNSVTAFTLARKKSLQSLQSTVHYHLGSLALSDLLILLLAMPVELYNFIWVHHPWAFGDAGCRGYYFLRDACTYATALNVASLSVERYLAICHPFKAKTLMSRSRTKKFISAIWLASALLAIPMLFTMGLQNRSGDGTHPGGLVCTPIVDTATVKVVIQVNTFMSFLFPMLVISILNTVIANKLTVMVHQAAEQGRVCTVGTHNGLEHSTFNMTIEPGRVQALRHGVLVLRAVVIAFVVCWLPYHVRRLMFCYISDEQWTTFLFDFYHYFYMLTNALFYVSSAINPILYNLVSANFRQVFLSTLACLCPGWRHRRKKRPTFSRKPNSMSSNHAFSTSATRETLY

Ki [1] [pM] | Ki [2] [pM] | Binder
80 | 110 | B1
190 | 470 | B2
 | 130 | B3
30 | 6340 | B4
60 | 400 | B5
120 | 150 | B6
680 | 220 | KRPY[Tle]L (X stands for Tle) [[Lys8, Tle12]NT(8-13)]
3310 | 13800 | KRPW[Tle]L (X stands for Tle) [[Lys8, Trp11, Tle12]NT(8-13)]
4200 | 1700 | RKPY[Tle]L (X stands for Tle) [[Lys9, Tle12]NT(8-13)]
850 | 3100 | RRPW[Tle]L (X stands for Tle) [[Trp11, Tle12]NT(8-13)]
20 | 2980 | B7
